Results: patent US20100062978A1 (UNIVERSITY OF TOKYO, published 2010)

Key:
[1] = target: T1, wild-type human EGFR (erbB1) (human, UniProt P00533 25-1210); assay: co-immunoprecipitation with anti-EGFR antibody from HEK293 lysate, immunoblot
T1 construct: whole, on cells; precipitated from cell lysates with anti-EGFR antibody; also called HER1; wild-type EGFR
Description: Before EGF treatment, Saos-2 cell or HEK293 cell was kept serum deficiency state for 24 hours.

[2] = target: T2, GST-ERK2 fusion protein (glutathione S-transferase fused with human ERK2, from pGEX-4T-1) (human, UniProt P28482 1-360); assay: GST-ERK2 pull-down from HEK293 lysate, immunoblot
T2 construct: Expressed in E. coli BL21 and immobilised on Glutathione Sepharose beads for the pull-down; not shown: glutathione S-transferase (GST) encoded by the vector pGEX-4T-1
T2 sequence (P28482 whole entry, the tested form may be a part): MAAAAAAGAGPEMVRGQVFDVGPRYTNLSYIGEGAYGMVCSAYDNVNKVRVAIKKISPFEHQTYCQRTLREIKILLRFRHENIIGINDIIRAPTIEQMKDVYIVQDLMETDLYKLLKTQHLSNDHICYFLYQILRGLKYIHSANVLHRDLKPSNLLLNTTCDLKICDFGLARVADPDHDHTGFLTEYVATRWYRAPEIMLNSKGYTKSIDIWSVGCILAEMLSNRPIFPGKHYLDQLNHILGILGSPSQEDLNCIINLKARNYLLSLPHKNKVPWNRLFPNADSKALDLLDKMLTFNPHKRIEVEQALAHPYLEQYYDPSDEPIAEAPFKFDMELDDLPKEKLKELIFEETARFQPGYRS

Row | Binder | binding result [1] | binding result [2]
1 | 186-328 variant of human SNT-2 (PTB-domain-deleted), C-terminal FLAG-tag (other, not shown: C-terminal FLAG-tag) DEQSHTYVNTPASEDDHRRGRHCLQPLPEGQAPFLPQARGPDQRDPQVFLQPGQVKFVLGPTPARRHMVKCQGLCPSLHDPPHHNNNNEAPSECPAQPKCTYENVTGGLWRGAGWRLSPEEPGWNGLAHRRAALLHYENLPPL | no binding | –
2 | 1-236 variant of human SNT-2, C-terminal FLAG-tag (other, C-terminal-cut-off variant expressed in HEK293 cells; not shown: C-terminal FLAG-tag) MGSCCSCLNRDSVPDNHPTKFKVTNVDDEGVELGSGVMELTQSELVLHLHRREAVRWPYLCLRRYGYDSNLFSFESGRRCQTGQGIFAFKCSRAEEIFNLLQDLMQCNSINVMEEPVIITRNSHPAELDLPRAPQPPNALGYTVSSFSNGCPGEGPRFSAPRRLSTSSLRHPSLGEESTHALIAPDEQSHTYVNTPASEDDHRRGRHCLQPLPEGQAPFLPQARGPDQRDPQVFLQ | – | no binding
